Experiment [1] has as its target T1, rat parathyroid hormone receptor (PTHR) (rat, UniProt P25961 27-591).
T1 sequence: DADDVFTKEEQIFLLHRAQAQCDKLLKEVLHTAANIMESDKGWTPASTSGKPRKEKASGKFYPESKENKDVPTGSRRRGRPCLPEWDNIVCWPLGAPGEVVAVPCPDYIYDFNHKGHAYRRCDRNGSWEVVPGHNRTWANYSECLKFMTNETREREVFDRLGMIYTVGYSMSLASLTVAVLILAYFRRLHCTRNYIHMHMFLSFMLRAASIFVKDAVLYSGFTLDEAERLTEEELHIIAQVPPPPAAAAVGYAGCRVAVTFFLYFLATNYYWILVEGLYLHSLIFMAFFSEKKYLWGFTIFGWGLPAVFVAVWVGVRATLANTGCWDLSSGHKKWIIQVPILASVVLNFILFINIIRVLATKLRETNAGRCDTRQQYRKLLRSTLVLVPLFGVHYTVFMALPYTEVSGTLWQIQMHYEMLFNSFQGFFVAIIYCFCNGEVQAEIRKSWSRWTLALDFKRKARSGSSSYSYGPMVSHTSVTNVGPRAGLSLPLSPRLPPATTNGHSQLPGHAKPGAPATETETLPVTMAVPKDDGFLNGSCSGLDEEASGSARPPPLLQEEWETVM
In words: cell-based or functional assay.

Experiment [2] addresses T2, human parathyroid hormone receptor (PTHR) (human, UniProt Q03431 27-593).
T2 construct: Assayed in membranes of HKRK-B7 cells or of transiently transfected COS-7 cells, or on intact HKRK-B7/HKRK-B64/COS-7 cells; RG = co-transfected with negative-dominant Galpha-s; R0 = receptor alone plus GTPgammaS; also called hPTHR; human PTH receptor
T2 sequence: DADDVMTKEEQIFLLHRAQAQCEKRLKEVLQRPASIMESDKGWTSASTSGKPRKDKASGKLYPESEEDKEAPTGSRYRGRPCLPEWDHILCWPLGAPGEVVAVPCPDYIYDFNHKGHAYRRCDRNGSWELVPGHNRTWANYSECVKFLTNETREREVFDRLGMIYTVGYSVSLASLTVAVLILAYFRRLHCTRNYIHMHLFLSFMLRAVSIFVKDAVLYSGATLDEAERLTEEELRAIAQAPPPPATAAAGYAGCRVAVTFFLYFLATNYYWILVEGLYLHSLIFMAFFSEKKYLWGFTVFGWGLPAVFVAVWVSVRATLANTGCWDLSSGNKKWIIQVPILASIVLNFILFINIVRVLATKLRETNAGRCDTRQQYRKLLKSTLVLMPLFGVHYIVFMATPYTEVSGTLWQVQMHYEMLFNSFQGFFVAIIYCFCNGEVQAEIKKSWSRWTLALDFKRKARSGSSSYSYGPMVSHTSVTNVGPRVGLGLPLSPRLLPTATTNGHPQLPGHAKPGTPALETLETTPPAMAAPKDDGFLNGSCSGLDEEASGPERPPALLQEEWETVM
Briefly: screen, binding to human PIR RG relative to parent PTHrP(1-28)NH; footnote not given.

Experiment [3] addresses T2, human parathyroid hormone receptor …. In words: screen, binding to human PIR R0 relative to parent PTHrP(1-28)NH; footnote not given.
The target is the same in experiment [4]. In words: competition radioligand binding, human PIR RG. On the procedure: (§1) Binding Studies. Binding studies were performed using cell membranes as described (Dean et al., Mol Endocrinol 20(4):931-43 (2006)). […] Reactions contained a total membrane protein concentration of 20 to 100 μg/mL, and a total radioactivity concentration of approximately 150,000 cpm/ml. Unlabeled peptide ligands and/or GTPγS (Sigma-Aldrich Inc. St. Louis, Mo.) were added to the reactions as indicated. At the end of the reaction, bound and free radioligand were separated by vacuum filtration using a 96-well vacuum filter plate and vacuum filter apparatus (Multi-Screen system with Durapore HV, […] filters; Millipore Corp., Milford, Mass.); the air-dried filters were then detached from the plate and counted for gamma radioactivity using a gamma counter.
(§2) To assess the capacities of various unlabeled peptide ligands to bind to the G protein-uncoupled and G protein-coupled PTHR conformations (R⁰ and RG, respectively), membranes were prepared from transiently transfected COS-7 cells and the following assay conditions.

The target is the same in experiment [5]. In words: competition radioligand binding, human PIR R0. On the procedure:
as §1, §2

The target is the same in experiment [6]. Briefly: competition radioligand binding, hPTHR RG conformation. On the procedure: as §1, §2
Experiment [7] shares this target. Briefly: competition radioligand binding, hPTHR R0 conformation. As for the experimental part:
as §1, §2

For experiment [8] the target is unchanged. In words: cell-based or functional assay.

Square brackets hold non-standard residues; d marks the D form. Ends that are not written are not given here. hArg = N=C(N)NCCCC[C@H](N)C(=O)O; Aib = CC(C)(N)C(=O)O

Turning to SVSEIQLMHNLGKHLNSMERVEWLRKKL-NH2 [hPTH(1-28)NH2], in experiment [1], the “acute cAMP in ROS17/2.8 cells, EC50 (FIG. 21A)” value was 7.6 nM and the “cAMP in ROS17/2.8 cells, EC50” value came out at 7.39 nM.

On to AVSEHQLLHDKGKSIQDARRRAFLHALI-NH2 [A18,22,26-PTHrP(1-28)NH], for which the “human PIR RG (% parent)” value in experiment [2] was determined as 167 % parent. In addition, the “human PIR R0 (% parent)” value in experiment [3] was determined as 160 % parent.

For the molecule AVSEHQLLHDKGKSIQDARRRNFLHALI-NH2 [A18,26,N22-PTHrP(1-28)NH], the “human PIR RG (% parent)” value in experiment [2] is 161 % parent. Besides, the “human PIR R0 (% parent)” value in experiment [3] stood at 136 % parent.

On to AVSEHQLLHDKGKSIQDARRRSFLHKLI-NH2 [A18,S22,K26-PTHrP(1-28)NH], for which the “human PIR RG (% parent)” value in experiment [2] turned out to be 175 % parent. Besides, the “human PIR R0 (% parent)” value in experiment [3] is 15 % parent.

Broadly, the IC50 is the midpoint of a concentration-inhibition curve. In the case of AVSEHQLLHDKGKSIQDERRRSFLLKLI-NH2 [E18,S22,L25,K26-PTHrP(1-28)NH], the values for the half-inhibitory concentration (IC50) in experiment [4] and in experiment [5] were 0.11 nM and 2060 nM, respectively.

For the molecule AVSEHQLLHDKGKSIQDERRRNFLHKLI-NH2 [E18,N22,K26-PTHrP(1-28)NH], the “human PIR RG (% parent)” value in experiment [2] came out at 147 % parent. The “human PIR R0 (% parent)” value in experiment [3] amounted to 84.4 % parent.

Regarding AVSEHQLLHDKGKSIQDERRRKFLHALI-NH2 [E18,K22,A26-PTHrP(1-28)NH], in experiment [2], the “human PIR RG (% parent)” value was 192 % parent. The “human PIR R0 (% parent)” value in experiment [3] came out at 106 % parent.

Take AVSEHQLLHDKGKSIQDERRRNFLHALI-NH2 [E18,N22,A26-PTHrP(1-28)NH]: the “human PIR RG (% parent)” value in experiment [2] is 140 % parent. In addition, the “human PIR R0 (% parent)” value in experiment [3] stood at 53.7 % parent.

As for AVSEHQLLHDKGKSIQDARRRSFLHALI-NH2 [A18,26,S22-PTHrP(1-28)NH], the “human PIR RG (% parent)” value in experiment [2] was 148 % parent. Besides, in experiment [3], the “human PIR R0 (% parent)” value amounted to 133 % parent.

As for AVSEHQLLHDKGKSIQDARRRLFLHKLI-NH2 [A18,L22,K26-PTHrP(1-28)NH], the “human PIR RG (% parent)” value in experiment [2] was found to be 177 % parent. Moreover, the “human PIR R0 (% parent)” value in experiment [3] turned out to be 160 % parent.

On to AVSEHQLLHDKGKSIQDARRRNFLHKLI-NH2 [A18,N22,K26-PTHrP(1-28)NH], for which, in experiment [2], the “human PIR RG (% parent)” value was 172 % parent. For the same molecule, the “human PIR R0 (% parent)” value in experiment [3] is 139 % parent.

As to AVSEHQLLHDKGKSIQDARRRLFLHALI-NH2 [A18,26,L22-PTHrP(1-28)NH], the “human PIR RG (% parent)” value in experiment [2] worked out at 163 % parent. Moreover, in experiment [3], the “human PIR R0 (% parent)” value turned out to be 133 % parent.

AVSEHQLLHDKGKSIQDERRRLFLHKLI-NH2 [E18,L22,K26-PTHrP(1-28)NH]: the “human PIR RG (% parent)” value in experiment [2] was found to be 152 % parent. Moreover, the “human PIR R0 (% parent)” value in experiment [3] was 64.4 % parent.

In the case of AVSEHQLLHDKGKSIQDERRRKFLHKLI-NH2 [E18,K22,26-PTHrP(1-28)NH], in experiment [2], the “human PIR RG (% parent)” value stood at 208 % parent. Besides, the “human PIR R0 (% parent)” value in experiment [3] is 120 % parent.

Consider AVSEHQLLHDKGKSIQDARRRWFLHKLI-NH2 [A18,W22,K26-PTHrP(1-28)NH], for which the “human PIR RG (% parent)” value in experiment [2] was 115 % parent. Further, the “human PIR R0 (% parent)” value in experiment [3] came out at 136 % parent.

Take AVSEHQLLHDKGKSIQDERRRLFLHALI-NH2 [E18,L22,A26-PTHrP(1-28)NH]: the “human PIR RG (% parent)” value in experiment [2] amounted to 125 % parent. In addition, in experiment [3], the “human PIR R0 (% parent)” value turned out to be 52.5 % parent.

For AVSEHQLLHDKGKSIQDERRRSFLHALI-NH2 [E18,S22,A26-PTHrP(1-28)NH], the “human PIR RG (% parent)” value in experiment [2] came to 132 % parent. Also, the “human PIR R0 (% parent)” value in experiment [3] stood at 31.9 % parent.

For the molecule AVSEHQLLHDKGKSIQDERRRWFLHKLI-NH2 [E18,W22,K26-PTHrP(1-28)NH], the “human PIR RG (% parent)” value in experiment [2] turned out to be 149 % parent. The “human PIR R0 (% parent)” value in experiment [3] was 46.6 % parent.

In the case of AVSEHQLLHDKGKSIQDARRRSFLLKLI-NH2 [A18,S22,L25,K26-PTHrP(1-28)NH], the IC50 in experiment [4] was determined as 0.1 nM; in experiment [5] it was 540 nM.

AVSEHQLLHDKGKSIQDERRRWFLHALI-NH2 [E18,W22,A26-PTHrP(1-28)NH]: in experiment [2], the “human PIR RG (% parent)” value was determined as 116 % parent. The “human PIR R0 (% parent)” value in experiment [3] was 18.8 % parent.

Take AVSEHQLLHDKGKSIQDARRRWFLHALI-NH2 [A18,26,W22-PTHrP(1-28)NH]: the “human PIR RG (% parent)” value in experiment [2] turned out to be 120 % parent. Further, the “human PIR R0 (% parent)” value in experiment [3] was 126 % parent.

Take AVSEHQLLHDKGKSIQDARRRAFLLKLIAE-NH2 [A18,22,L25,K26-PTHrP(1-30)NH]: the concentration for half-maximal inhibition (IC50) in experiment [6] was found to be 0.05 nM; in experiment [4], 0.05 nM; in experiment [7] it was 144 nM; in experiment [5], 144 nM.

As to WV[Aib]EIQLMHQ[hArg]AKWLNSMRRVEWLRKKL [Trp^1-M-PTH(1-28)], in experiment [1], the “IP3 formation, fold less potent than M-PTH(1-28)” value was determined as 100 fold.

As for AVAEIQLMHQRAKWLNSMRRVEWLRKKLQDVHNF-OH [Mc-hPTH(1-34)OH], in experiment [8], the “cAMP in HKRK-B7 cells, EC50” value stood at 3.25 nM and the “cAMP in HKRK-B7 cells, Max” value is 65.5 pm/well.

B1: [Ala^1,12,Aib^3,Gln^10,homoarginine^11,Trp^14,Arg^19]human(h)PTH(1-28)NH2 (peptide)
peptide: AV[Aib]EIQLMHQ[hArg]AKWLNSMRRVEWLRKKL-NH2
modifications: N-terminus assumed
SMILES: CC[C@H](C)[C@H](NC(=O)[C@H](CCC(=O)O)NC(=O)C(C)(C)NC(=O)[C@@H](NC(=O)[C@H](C)N)C(C)C)C(=O)N[C@@H](CCC(N)=O)C(=O)N[C@@H](CC(C)C)C(=O)N[C@@H](CCSC)C(=O)N[C@@H](Cc1c[nH]cn1)C(=O)N[C@@H](CCC(N)=O)C(=O)N[C@@H](CCCCNC(=N)N)C(=O)N[C@@H](C)C(=O)N[C@@H](CCCCN)C(=O)N[C@@H](Cc1c[nH]c2ccccc12)C(=O)N[C@@H](CC(C)C)C(=O)N[C@@H](CC(N)=O)C(=O)N[C@@H](CO)C(=O)N[C@@H](CCSC)C(=O)N[C@@H](CCCNC(=N)N)C(=O)N[C@@H](CCCNC(=N)N)C(=O)N[C@H](C(=O)N[C@@H](CCC(=O)O)C(=O)N[C@@H](Cc1c[nH]c2ccccc12)C(=O)N[C@@H](CC(C)C)C(=O)N[C@@H](CCCNC(=N)N)C(=O)N[C@@H](CCCCN)C(=O)N[C@@H](CCCCN)C(=O)N[C@@H](CC(C)C)C(N)=O)C(C)C
On to B1, for which, in experiment [1], the “acute cAMP in ROS17/2.8 cells, EC50 (FIG. 21A)” value was determined as 0.33 nM and the “cAMP in ROS17/2.8 cells, EC50” value is 0.37 nM.

(Values after patent US20110172153A1 (GENERAL HOSPITAL, published 2011).)
